According to patent publication US20230036041A1, “SORTILIN BINDING CONJUGATE COMPOUNDS, COMPOSITIONS AND USES THEREOF FOR TREATING CANCER” (THERATECHNOLOGIES INC., priority 2019, published 2023):
Non-standard residues stand in square brackets, D forms with d. No end group written: not given here. Nle = CCCC[C@H](N)C(=O)O

Target: T1, sortilin (Homo sapiens, UniProt Q99523)
T1 construct: endogenous in cells
T1 sequence (Q99523 78-831): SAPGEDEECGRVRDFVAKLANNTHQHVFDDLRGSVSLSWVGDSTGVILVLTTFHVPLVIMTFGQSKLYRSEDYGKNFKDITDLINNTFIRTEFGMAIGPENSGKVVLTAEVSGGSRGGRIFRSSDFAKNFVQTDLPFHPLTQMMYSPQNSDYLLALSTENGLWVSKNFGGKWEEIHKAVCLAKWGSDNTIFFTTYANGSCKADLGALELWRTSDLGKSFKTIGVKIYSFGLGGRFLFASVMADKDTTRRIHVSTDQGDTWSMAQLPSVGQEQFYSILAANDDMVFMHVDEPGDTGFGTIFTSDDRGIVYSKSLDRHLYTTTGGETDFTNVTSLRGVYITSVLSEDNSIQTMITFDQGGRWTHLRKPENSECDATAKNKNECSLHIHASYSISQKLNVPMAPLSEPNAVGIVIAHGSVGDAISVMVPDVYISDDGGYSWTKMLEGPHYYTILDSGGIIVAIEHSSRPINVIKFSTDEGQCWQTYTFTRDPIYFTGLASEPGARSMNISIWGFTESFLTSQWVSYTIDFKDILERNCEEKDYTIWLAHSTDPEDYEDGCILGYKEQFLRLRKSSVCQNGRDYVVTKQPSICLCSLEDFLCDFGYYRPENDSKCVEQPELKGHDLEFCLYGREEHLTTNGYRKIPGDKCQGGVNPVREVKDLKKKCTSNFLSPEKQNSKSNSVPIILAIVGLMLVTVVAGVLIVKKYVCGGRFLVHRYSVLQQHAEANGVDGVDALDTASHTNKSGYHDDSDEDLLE
Assay: uptake of the peptide upon sortilin siRNA
Assay type: cell-based
Settings: FIG. 6
Description: In vitro testing of the TH19P01 peptide and the TH1902 conjugate compound was conducted.

Acetyl-GVRAKAGVRN(Nle)FKSESY (Ac-GVRAKAGVRN[Nle]FKSESY) [TH19P01]
uptake of the peptide: inhibited upon sortilin siRNA
